This passage reports Kd results from the Immune Epitope Database (IEDB).

Broadly, the Kd is the free concentration of one partner at which half of the binding sites on the other are occupied at equilibrium, for simple one-to-one binding. A higher Kd goes with a looser complex.

Details in all cases: source organism: Rickettsia bellii OSU 85-389
For one assay, the target named is HLA-A*02:01. Description: IEDB peptide-MHC binding, purified MHC/direct/fluorescence; filed as Kd, often an IC50 or EC50 that approximates it; ≥ and ≤ were set here for values at or beyond the usual limits of such assays.
The target of the next assay is HLA-A*02:03. Described as above.
The target in the next assay is HLA-A*02:11. The description is as above.
Another assay addresses HLA-A*03:01. The description is as above.
A further assay addresses HLA-A*29:02. The description is as above.
For the next assay, the target named is HLA-A*68:02. Described as above.
The target of the next assay is HLA-B*15:17. The description is as above.
The target in a further assay is HLA-B*18:01. Described as above.
Another assay addresses HLA-B*46:01. The assay is described as above.
Another assay has as its target HLA-B*51:01. The description is as above.
The next assay concerns the target HLA-A*01:01. In words: IEDB peptide-MHC binding, purified MHC/competitive/fluorescence; filed as Kd, often an IC50 or EC50 that approximates it; ≥ and ≤ were set here for values at or beyond the usual limits of such assays.
Another assay concerns the target HLA-A*11:01. Described as above.
In the next assay the target is HLA-A*23:01. The assay is described as above.
Another assay concerns the target HLA-A*30:01. The assay is described as above.
In a further assay the target is HLA-A*30:02. The description is as above.
Another assay deals with HLA-A*66:01. The assay is described as above.
The next assay addresses HLA-B*07:02. Described as above.
In another assay the target is HLA-B*08:01. Described as above.
The target of the next assay is HLA-B*14:02. The description is as above.
Another assay concerns the target HLA-B*27:05. The assay is described as above.
The target of the next assay is HLA-B*40:01. Described as above.
The next assay addresses HLA-B*44:02. Described as above.
The next assay concerns the target HLA-B*53:01. The description is as above.
The target of the next assay is HLA-B*58:01. Described as above.

For EDFEIFYNL, the Kd with HLA-A*02:01 was at least 20 µM; in the assay with HLA-A*02:03, at least 20 µM; in the assay with HLA-A*02:11, at least 20 µM; in the assay with HLA-A*03:01 it was at least 20 µM; with HLA-A*29:02, at least 20 µM; with HLA-A*68:02, 0.144 µM. For the same sequence, the Kd was at least 20 µM in the assay with HLA-B*15:17; at least 20 µM with HLA-B*18:01; at least 20 µM with HLA-B*46:01; at least 20 µM with HLA-B*51:01; at least 5 µM in the assay with HLA-A*01:01; at least 5 µM in the assay with HLA-A*11:01. For the same sequence, the Kd with HLA-A*23:01, with HLA-A*30:01, with HLA-A*30:02, in the assay with HLA-A*66:01, with HLA-B*07:02 and with HLA-B*08:01 was at least 5 µM each time. The Kd in the assay with HLA-B*14:02, with HLA-B*27:05, with HLA-B*40:01, with HLA-B*44:02, with HLA-B*53:01 and with HLA-B*58:01 was at least 5 µM each time.
